B1: mAb S2A5 (mouse variable regions on human IgG1) (antibody, V domains shown)
VH: EVQLQQSGPELVKPGASVKVSCKASGYSFSDDNMYWVKQSHGKSLEWIGYIDPDNGGTSYNQKFKGKATLTVDKSSSTAFMHLNSLTSEDSAVYYCAREDYYGSRAMDYWGQGTSVTVSS
VL: DIVLTQSPASLAVSLGQRATISCKASQSVDYAGDSYMNWYQQKPGQPPKLLIYAASNLESAIPARFSGSGSGTDFTLNIHPVQEEDAATYYCQQSYEDPRTFGGGTKLEIK
B2: mAb B1G11 (mouse variable regions on human IgG1) (antibody, V domains shown)
VH: EVKLMESGGGLVQPGDSLRLSCAISGFTFSDYYMSWVRQPPGKALEWLGFIRNKAKGYTTEYSASVKGRFTISRDNSQSILYLQMNTLRAEDSATYYCARDYRYDDEYYYAMDYWGQGTSVTVSS
VL: GVVMTQTTSSLSASLGDRVTISCSASQGISNYLNWYQQKPDGTVKLLIYYTSILHSGVPSRFSGSGSGTDYSLTISNLEPEDIATYYCQQYSKFPRTFGGGTKLEIK
B3: mAb N1D10 (mouse variable regions on human IgG1) (antibody, V domains shown)
VH: EVKLVESGGGLVQPGGSLKLSCAASGFTFSTYTMSWVRQTPEKRLEWVAYISNGGGSTYYPDTVKGRFTISRDNAKNTLYLQMSSLNSEDTAMYYCARSYGNFDVWGAGTTVTVSS
VL: DVVMTQTPLSLPVSFGDQVSISCRSSQSLANSYGNTYLSWYLHKPGQSPQLLIYGISKRFSGVPDRFSGSGSGTDFTLKISTIKPEDLGMYYCLQGTHQPWTFGGGTKLEIK

What was measured:
[1] = molecular target: S2A5-L1^A (S2A5 with alanine substitution in light chain region 26-30C) (mouse | human); assay: BLI
[2] = molecular target: GTV Gn head domain (residues 19-337) (Guertu virus (GTV), GenBank KT328592.1, UniProt A0A0S2Z2X2); assay: ELISA

Molecule | fold decrease of binding affinity against WT S2A5 [1] [fold] | binding result [2]
SFTSV Gn head domain protein (residues 20-340, strain WCH97, genotype A) (domain or fragment) | 11 | 
B1 |  | binds
B2 |  | binds
B3 |  | binds

— PMC11327358 (Nature Communications, 2024)
